Bridge positions count the residues as written; N and C are the ends. Ends that are not written are not given here. COCH2 = acetyl group that carries the bridge
B1: cyclic peptide SEQ ID NO: 49 (peptide)
peptide: SCQGNWISNTQFRYFIAYK(COCH2)T
modifications: thioether 2-19 (inferred); not fully specified (residue 1); printed as s-(C)-QGNWISNTQFRYFIAY-(K(acetyl))-T

Target: T1, Recombinant Human FGFR2 alpha (IIIc) Fc Chimera Protein, CF (R&D systems, 712-FR-050) (human, UniProt P21802 22-377)
T1 construct: bought; not shown: Fc part of the chimera
T1 sequence (P21802 22-377, change not shown): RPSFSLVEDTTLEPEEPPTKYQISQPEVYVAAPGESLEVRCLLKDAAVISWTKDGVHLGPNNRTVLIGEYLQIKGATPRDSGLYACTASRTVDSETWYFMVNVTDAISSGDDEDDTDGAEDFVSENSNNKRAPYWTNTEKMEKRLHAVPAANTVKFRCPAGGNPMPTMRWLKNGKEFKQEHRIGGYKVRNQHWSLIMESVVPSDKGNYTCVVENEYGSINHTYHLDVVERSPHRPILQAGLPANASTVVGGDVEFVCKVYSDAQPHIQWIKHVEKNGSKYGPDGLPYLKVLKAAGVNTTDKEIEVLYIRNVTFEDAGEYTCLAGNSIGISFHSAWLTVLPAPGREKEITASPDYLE
Experiment: ELISA on plate-bound FGFR2-Fc
Outline: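 Plate-immobilized FGFR2 alpha (IIIc)-Fc (5 ng/well) incubated with peptide 3 h at room temperature, then anti-Myc antibody 2 h and chemiluminescent ELISA substrate. Signal corrected by subtracting FGFR-free wells; binding affinity scored into categories from the dose-response.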

| Binder | ELISA luminescence signal at 10 nmol/L peptide, relative to SEQ ID NO: 47 (=1) |
| --- | --- |
| QCLQDLYRYLYLLK(COCH2)A (thioether 2-14) [cyclic peptide SEQ ID NO: 374] | 0.1 to 0.5 ratio |
| VCNENNWSRSQYHFFLQYK(COCH2)Y (thioether 2-19 (inferred)) [cyclic peptide SEQ ID NO: 52] | 0.1 to 0.5 ratio |
| LCYLYQYLYQAK(COCH2)F (thioether 2-12) [cyclic peptide SEQ ID NO: 365] | 0.1 to 0.5 ratio |
| ACGQNFYHPVQFHYFIAYK(COCH2)Q (thioether 2-19 (inferred)) [cyclic peptide SEQ ID NO: 50] | ≥ 0.7 ratio |
| LCYLYQYIYTAK(COCH2)F (thioether 2-12) [cyclic peptide SEQ ID NO: 363] | 0.1 to 0.5 ratio |
| DCQLYYLYQYVLTK(COCH2)V (thioether 2-14) [cyclic peptide SEQ ID NO: 370] | 0.1 to 0.5 ratio |
| DCQLWYLYQYLIVK(COCH2)A (thioether 2-14) [cyclic peptide SEQ ID NO: 371] | 0.1 to 0.5 ratio |
| QCEQLKYLYQYVLKL (not fully specified; thioether ring (C)-(K(acetyl))) [cyclic peptide SEQ ID NO: 372] | 0.1 to 0.5 ratio |
| HCQLEYLYTYVLK(COCH2)I (thioether 2-13) [cyclic peptide SEQ ID NO: 367] | 0.1 to 0.5 ratio |
| QCIQDLYLYLYFLK(COCH2)T (thioether 2-14) [cyclic peptide SEQ ID NO: 376] | 0.1 to 0.5 ratio |
| DCQQYYLYLYLWK(COCH2)I (thioether 2-13) [cyclic peptide SEQ ID NO: 366] | 0.1 to 0.5 ratio |
| QCLIQDLYAYIFK(COCH2)L (thioether 2-13) [cyclic peptide SEQ ID NO: 368] | 0.1 to 0.5 ratio |
| LCYLYQYLYTTK(COCH2)Y (thioether 2-12) [cyclic peptide SEQ ID NO: 362] | 0.1 to 0.5 ratio |
| DCLQFIYQYLYTVK(COCH2)I (thioether 2-14) [cyclic peptide SEQ ID NO: 375] | 0.1 to 0.5 ratio |
| QCYNYQYIYQYIYK(COCH2)I (thioether 2-14) [cyclic peptide SEQ ID NO: 373] | 0.1 to 0.5 ratio |
| VCHSNFLSAVQYAYFYQYK(COCH2)H (thioether 2-19 (inferred)) [cyclic peptide SEQ ID NO: 51] | ≥ 0.7 ratio |
| GCYWNEVQYYYLQQYK(COCH2)Q (thioether 2-16 (inferred)) [cyclic peptide SEQ ID NO: 48] | ≥ 0.7 ratio |

| Binder | ELISA luminescence signal at 10 nmol/L peptide, relative to SEQ ID NO: 47 (=1) |
| --- | --- |
| QCLQYLYQYLFK(COCH2)I (thioether 2-12) [cyclic peptide SEQ ID NO: 364] | 0.1 to 0.5 ratio |
| B1 | ≥ 0.7 ratio |
| QCYYLYWYLYK(COCH2)I (thioether 2-11) [cyclic peptide SEQ ID NO: 361] | 0.1 to 0.5 ratio |
| DCLQFLYLYLYQK(COCH2)T (thioether 2-13) [cyclic peptide SEQ ID NO: 369] | 0.1 to 0.5 ratio |
| QCPQYFINPVQWRYFQHYK(COCH2)N (thioether 2-19) [cyclic peptide SEQ ID NO: 96] | 0.1 to 0.5 ratio |
| QCPQNFINPVQSRYFQHYK(COCH2)N (thioether 2-19) [cyclic peptide SEQ ID NO: 105] | 0.1 to 0.5 ratio |
| QK(COCH2)PQNFINPVQWRYFQHYCN (thioether 2-19) [cyclic peptide SEQ ID NO: 399] | 0.1 to 0.5 ratio |
| QCPQTFINPVQWRYFQHYK(COCH2)N (thioether 2-19) [cyclic peptide SEQ ID NO: 98] | 0.1 to 0.5 ratio |
| QCPQNFINPVQFRYFQHYK(COCH2)N (thioether 2-19) [cyclic peptide SEQ ID NO: 103] | 0.5 to 0.7 ratio |
| QCPQSFINPVQWRYFQHYK(COCH2)N (thioether 2-19) [cyclic peptide SEQ ID NO: 97] | 0.1 to 0.5 ratio |
| QCPQNFINPVQIRYFQHYK(COCH2)N (thioether 2-19) [cyclic peptide SEQ ID NO: 101] | 0.1 to 0.5 ratio |
| QCPQNFINPVQHRYFQHYK(COCH2)N (thioether 2-19) [cyclic peptide SEQ ID NO: 106] | ≥ 0.7 ratio |
| QCPQHFINPVQWRYFQHYK(COCH2)N (thioether 2-19) [cyclic peptide SEQ ID NO: 100] | 0.1 to 0.5 ratio |
| QCPQEFINPVQWRYFQHYK(COCH2)N (thioether 2-19) [cyclic peptide SEQ ID NO: 99] | 0.1 to 0.5 ratio |
| QCPQNFINPVQYRYFQHYK(COCH2)N (thioether 2-19) [cyclic peptide SEQ ID NO: 104] | 0.5 to 0.7 ratio |
| QCPQNFINPVQVRYFQHYK(COCH2)N (thioether 2-19) [cyclic peptide SEQ ID NO: 102] | 0.1 to 0.5 ratio |

Source: US20260008815A1, “CYCLIC PEPTIDE OR SALT THEREOF, AND USES THEREOF” (FUJIFILM Corporation, priority 2023, published 2026)
